Data on seven molecules can be found in PMC6668832, “Structural basis for recognition of the tumor suppressor protein PTPN14 by the oncoprotein E7 of human papillomavirus” (PLoS Biology, 2019).

The term stoichiometry N denotes a count of units in the complex or per binding partner. A word on the Kd: it is the equilibrium constant for the complex coming apart.

B1: PTP domain of PTPN21 (residues 873–1174) (domain or fragment, human, UniProt Q16825 873-1174, looked up)
chain: EVATRATNDERCKILEQRLEQGMVFTEYERILKKRLVDGECSTARLPENAERNRFQDVLPYDDVRVELVPTKENNTGYINASHIKVSVSGIEWDYIATQGPLQNTCQDFWQMVWEQGIAIIAMVTAEEEGGREKSFRYWPRLGSRHNTVTYGRFKITTRFRTDSGCYATTGLKMKHLLTGQERTVWHLQYTDWPEHGCPEDLKGFLSYLEEIQSVRRHTNSTSDPQSPNPPLLVHCSAGVGRTGVVILSEIMIACLEHNEVLDIPRVLDMLRQQRMMLVQTLCQYTFVYRVLIQFLKSSRLI
notes: human PTPN21, PTP domain, residues 873-1174; also called PTPN21 PTP domain; PTPD1; source: E. coli, modified pPRoEX HTa, purified (Ni-NTA, TEV, second Ni-NTA); not shown: His10, N-terminal, cleaved; green fluorescent protein, N-terminal, cleaved
B2: PTP domain (residues 886–1187) of human PTPN14 (domain or fragment, UniProt Q15678 886-1187, looked up)
chain: VDATRVPMDERFRTLKKKLEEGMVFTEYEQIPKKKANGIFSTAALPENAERSRIREVVPYEENRVELIPTKENNTGYINASHIKVVVGGAEWHYIATQGPLPHTCHDFWQMVWEQGVNVIAMVTAEEEGGRTKSHRYWPKLGSKHSSATYGKFKVTTKFRTDSVCYATTGLKVKHLLSGQERTVWHLQYTDWPDHGCPEDVQGFLSYLEEIQSVRRHTNSMLEGTKNRHPPIVVHCSAGVGRTGVLILSELMIYCLEHNEKVEVPMMLRLLREQRMFMIQTIAQYKFVYQVLIQFLQNSRLI
notes: human PTPN14, catalytic PTP domain, residues 886-1187, untagged; also called PTPN14 PTP domain; nonreceptor-type protein tyrosine phosphatase 14; source: E. coli BL21(DE3) RIL, pET21a, purified (alone or copurified with E7)
B3: C-terminal domain of E7 from HPV11 (residues 45–98) (domain or fragment)
chain: AQPLTQHYQILTCCCGCDSNVRLVVECTDGDIRQLQDLLLGTLNIVCPICAPKP
notes: HPV11 E7, C-terminal domain, residues 45-98; Purified similarly to HPV18 E7, whose tag was removed with TEV; the complex mass of 80–85 kDa fits a cleaved tag; also called HPV11 E7 C-terminal domain; source: E. coli, MBP-modified pET28a, copurified with PTPN14 by mixing cell lysates
B4: C-terminal domain of E7 from HPV1a (residues 39–93) (domain or fragment)
chain: LVSPQQPYAVVASCAYCEKLVRLTVLADHSAIRQLEELLLRSLNIVCPLCTLQRQ
notes: HPV1a E7, C-terminal domain, residues 39-93; Purified similarly to HPV18 E7, whose tag was removed with TEV; the complex mass of 80–85 kDa fits a cleaved tag; also called HPV1a E7 C-terminal domain; source: E. coli, MBP-modified pET28a, copurified with PTPN14 by mixing cell lysates
B6: C-terminal domain of E7 from HPV16 (residues 45–98) (domain or fragment)
chain: AEPDRAHYNIVTFCCKCDSTLRLCVQSTHVDIRTLEDLLMGTLGIVCPICSQKP
notes: HPV16 E7, C-terminal domain, residues 45-98; Purified similarly to HPV18 E7, whose tag was removed with TEV; the complex mass of 80–85 kDa fits a cleaved tag; also called HPV16 E7 C-terminal domain; source: E. coli, MBP-modified pET28a, copurified with PTPN14 by mixing cell lysates
B7: C-terminal domain (residues 54–105) of HPV18 E7, His6-MBP tag removed (domain or fragment)
chain: AEPQRHTMLCMCCKCEARIKLVVESSADDLRAFQQLFLNTLSFVCPWCASQQ
notes: HPV18 E7, C-terminal domain, residues 54-105; Homodimer by SEC-MALS; one zinc ion per monomer; also called HPV18 E7 C-terminal domain; HPV18 E7(54–105); source: E. coli BL21(DE3) RIL, modified pET28a, purified (Ni-NTA, TEV, second Ni-NTA, HiTrap Q, Superdex 75); not shown: His6, N-terminal, cleaved; MBP, N-terminal, cleaved

Series [1] concerns the target B7. In words: SEC-MALS; Superdex 75 10/300 GL; 50 mM Tris-HCl pH 7.5, 200 mM NaCl, 2 mM dithiothreitol; 6 mg/mL E7 C-terminal domain, 3 mg/mL PTP domain or copurified complex. As to conditions: both partners purified. (In general: In gel filtration, larger molecules generally elute earlier.)
The target of series [2] is C-terminal domain of E7 from HPV38 (residues 45–100) (human papillomavirus 38 (HPV38)). The description is as above.
Series [3] has as its target C-terminal domain of E7 from HPV4 (residues 44–100) (human papillomavirus 4 (HPV4)). The description is as above.
In series [4] the target is B4. The series is described as above. As to conditions: both partners purified.
The target of series [5] is B3. The series is described as above. As to conditions: both partners purified.
The target in series [6] is B6. The series is described as above. As to conditions: both partners purified.
For series [7], the target named is B2. In words: SEC; copurified from mixed E. coli lysates (Ni-NTA, TEV, second Ni-NTA); final HiLoad 26/600 Superdex 75 pg gel filtration, fractions on SDS-PAGE with Coomassie staining. The conditions noted are these: both partners purified.
For series [8], the target named is B2. In words: ITC; 25 °C, VP-ITC; PTP domain titrated into MBP-tagged HPV18 E7 (0.2 mM into 10 μM in Fig 1B); 20 mM Tris-HCl pH 7.5, 100 mM NaCl, 10 mM β-mercaptoethanol; one-to-one model; triplicate. The conditions noted are these: both partners purified. A general note: Isothermal titration calorimetry measures the heat released or taken up as one component is titrated into another.

In series [9] the target is B1. The series is described as above. The conditions noted are these: both partners purified.
Series [10] deals with the molecule itself. Put plainly: SEC-MALS; Superdex 75 10/300 GL; 50 mM Tris-HCl pH 7.5, 200 mM NaCl, 2 mM dithiothreitol; 6 mg/mL E7 C-terminal domain, 3 mg/mL PTP domain or copurified complex.

Sequence of C-terminal domain of E7 from HPV4 (residues 44–100) (human papillomavirus 4 (HPV4)) (Q07857 44-100 limits assumed): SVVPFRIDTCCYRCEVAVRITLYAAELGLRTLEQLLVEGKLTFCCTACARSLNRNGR
Sequence of C-terminal domain of E7 from HPV38 (residues 45–100) (human papillomavirus 38 (HPV38)) (Q80908 45-100 limits assumed): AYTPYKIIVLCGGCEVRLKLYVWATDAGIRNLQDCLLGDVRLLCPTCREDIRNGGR

Turning to B1, in [1], the “stoichiometry N” value was 1 PTPN21 per E7 (2:2).

For the molecule B2, the stoichiometry N (PTPN14 per E7 (2:2)) in series [2] and in [3] was 1 each time. Also, the “stoichiometry N” value in series [4], in series [5], in series [6] and in [1] was 1 PTPN14 per E7 (2:2) throughout.

Take B3: in series [7], the binding result is given as “binds”.

On to B4, for which the binding result in series [7] is reported as “binds”.

B5: MBP-tagged HPV18 E7 C-terminal domain (residues 54–105) (domain or fragment)
chain: AEPQRHTMLCMCCKCEARIKLVVESSADDLRAFQQLFLNTLSFVCPWCASQQ
notes: HPV18 E7, C-terminal domain, residues 54-105; also called His6–MBP-tagged C-terminal domain of HPV18 E7; source: E. coli BL21(DE3) RIL, modified pET28a, purified; not shown: His6, N-terminal, kept; MBP, N-terminal, kept
As to B5, the dissociation constant (Kd) in series [8] is 18.2 nM; in [9] it was 5.81 nM.

B6: the binding result in series [7] is recorded as “binds”.

With B7, the “stoichiometry N” value in [10] is 2.
